This is an account of results in PMC10046596, “Biophysical and Biochemical Characterization of the Binding of the MarR-like Transcriptional Regulator Saro_0803 to the nov1 Promotor and Its Inhibition by Resveratrol” (Biomolecules, 2023).

Numbering of substitutions follows the chain as printed.

Data set [1] deals with T1, Saro_0803 (Novosphingobium aromaticivorans, UniProt Q2GA75).
T1 construct: His-tagged Saro_0803 (pET-30a(+)), full-length; homogeneous dimer in solution
T1 sequence (Q2GA75 1-157): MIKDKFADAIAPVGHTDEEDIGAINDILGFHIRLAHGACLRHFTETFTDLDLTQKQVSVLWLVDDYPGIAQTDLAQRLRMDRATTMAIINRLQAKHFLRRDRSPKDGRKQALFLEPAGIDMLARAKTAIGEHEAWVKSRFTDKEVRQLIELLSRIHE
Nature of the data set: ITC (also SPR, Kd […]; EMSA shows inhibition of nov1p^[…]bp binding). (In EMSA bound probe runs differently from free probe, usually more slowly.)

Data set [2] addresses T2, Saro_0803 (Novosphingobium aromaticivorans DSM …, UniProt Q2GA75 1-157).
T2 sequence: T1 sequence (Q2GA75 1-157)
Nature of the data set: EMSA; 10 µM protein; ITC: 50 mM Tris-HCl pH 8.0, 200 mM NaCl, 5% DMSO, 25 °C, 20 µM protein, 200 µM DNA; EMSA: 5.0 µM DNA (annealed in 50 mM Tris-HCl pH 8.0, 200 mM NaCl), 37 °C 30. As to conditions: protein: recombinant; tags: His-tag (pET-30a(+), NdeI/XhoI); chain copies: 2.

The target of data set [3] is T2, Saro_0803. As to the kind of experiment: EMSA; ITC: 50 mM Tris-HCl pH 8.0, 200 mM NaCl, 5% DMSO, 25 °C, 20 µM protein, 200 µM DNA; EMSA: 5.0 µM DNA (annealed in 50 mM Tris-HCl pH 8.0, 200 mM NaCl), 37 °C 30. As to conditions: protein: recombinant; tags: His-tag (pET-30a(+), NdeI/XhoI); chain copies: 2.
In data set [4] the target is T3, Saro_0803 K55A (Novosphingobium aromaticivorans DSM …, UniProt Q2GA75 1-157, K55A).
T3 sequence: T1 sequence (Q2GA75 1-157) with K55A
As to the kind of experiment: ITC; 5% DMSO; ITC: 50 mM Tris-HCl pH 8.0, 200 mM NaCl, 5% DMSO, 25 °C, 20 µM protein, 200 µM DNA; EMSA: 5.0 µM DNA (annealed in 50 mM Tris-HCl pH 8.0, 200 mM NaCl), 37 °C 30. As to conditions: protein: recombinant; tags: His-tag; chain copies: 2. Background: In ITC the heat of successive injections is recorded.

The target in data set [5] is T4, Saro_0803 F30A (Novosphingobium aromaticivorans DSM …, UniProt Q2GA75 1-157, F30A).
T4 sequence: T1 sequence (Q2GA75 1-157) with F30A
As to the kind of experiment: ITC, EMSA; micromolar or submicromolar; ITC: 50 mM Tris-HCl pH 8.0, 200 mM NaCl, 5% DMSO, 25 °C, 20 µM protein, 200 µM DNA; EMSA: 5.0 µM DNA (annealed in 50 mM Tris-HCl pH 8.0, 200 mM NaCl), 37 °C 30. As to conditions: protein: recombinant; tags: His-tag; chain copies: 2.

In data set [6] the target is T5, Saro_0803 F43A (Novosphingobium aromaticivorans DSM …, UniProt Q2GA75 1-157, F43A).
T5 sequence: T1 sequence (Q2GA75 1-157) with F43A
Described as above. Conditions: protein: recombinant; tags: His-tag; chain copies: 2.

For data set [7], the target named is T6, Saro_0803 W61A (Novosphingobium aromaticivorans DSM …, UniProt Q2GA75 1-157, W61A).
T6 sequence: T1 sequence (Q2GA75 1-157) with W61A
The description is as above. As to conditions: protein: recombinant; tags: His-tag; chain copies: 2.

Data set [8] deals with T7, Saro_0803 F47A (Novosphingobium aromaticivorans DSM …, UniProt Q2GA75 1-157, F47A).
T7 sequence: T1 sequence (Q2GA75 1-157) with F47A
The description is as above. Conditions: protein: recombinant; tags: His-tag; chain copies: 2.

For data set [9], the target named is T8, Saro_0803 K109E (Novosphingobium aromaticivorans DSM …, UniProt Q2GA75 1-157, K109E).
T8 sequence: T1 sequence (Q2GA75 1-157) with K109E
Nature of the data set: ITC; 5% DMSO; ITC: 50 mM Tris-HCl pH 8.0, 200 mM NaCl, 5% DMSO, 25 °C, 20 µM protein, 200 µM DNA; EMSA: 5.0 µM DNA (annealed in 50 mM Tris-HCl pH 8.0, 200 mM NaCl), 37 °C 30. As to conditions: protein: recombinant; tags: His-tag; chain copies: 2.

Data set [10] concerns the target T9, Saro_0803 R108A (Novosphingobium aromaticivorans DSM …, UniProt Q2GA75 1-157, R108A).
T9 sequence: T1 sequence (Q2GA75 1-157) with R108A
The data set is described as above. As to conditions: protein: recombinant; tags: His-tag; chain copies: 2.

The target of data set [11] is T10, Saro_0803 A87R (Novosphingobium aromaticivorans DSM …, UniProt Q2GA75 1-157, A87R).
T10 sequence: T1 sequence (Q2GA75 1-157) with A87R
The data set is described as above. Conditions: protein: recombinant; tags: His-tag; chain copies: 2.

The target in data set [12] is T11, Saro_0803 K109A (Novosphingobium aromaticivorans DSM …, UniProt Q2GA75 1-157, K109A).
T11 sequence: T1 sequence (Q2GA75 1-157) with K109A
The data set is described as above. As to conditions: protein: recombinant; tags: His-tag; chain copies: 2.

In data set [13] the target is T2, Saro_0803. The data set is described as above. As to conditions: protein: recombinant; tags: His-tag (pET-30a(+), NdeI/XhoI); chain copies: 2.
In data set [14] the target is T12, Saro_0803 R108D (Novosphingobium aromaticivorans DSM …, UniProt Q2GA75 1-157, R108D).
T12 sequence: T1 sequence (Q2GA75 1-157) with R108D
The description is as above. Conditions: protein: recombinant; tags: His-tag; chain copies: 2.

Data set [15] deals with the molecule itself. As to the kind of experiment: AUC; sedimentation velocity, protein ~1.0 mg/mL, 40,000 rpm for 2 h at 4 °C, c(s) analysis with Sedfit.

What is called Kd is the free concentration of one partner at which half of the binding sites on the other are occupied at equilibrium, for simple one-to-one binding. `Oc1ccc(/C=C/c2cc(O)cc(O)c2)cc1` [resveratrol]: the Kd in [1] was about 35.7 µM.

B1: nov1p58bp with 15 bp 3' deletion (43 bp) (dsDNA)
DNA 1: CCAACGAATGCGCTTGTCTAATTGTTAGCAATACATACAATAT
DNA 2: ATATTGTATGTATTGCTAACAATTAGACAAGCGCATTCGTTGG
On to B1, for which the binding result in data set [2] is “no binding”.

B2: 18-bp upstream fragment (dsDNA)
DNA 1: CCAACGAATGCGCTTGTC
DNA 2: GACAAGCGCATTCGTTGG
With B2, the binding result in data set [3] is recorded as “no binding”.

B3: nov1p22bp (dsDNA)
DNA 1: TAATTGTTAGCAATACATACAA
DNA 2: TTGTATGTATTGCTAACAATTA
Consider B3, for which the binding signal in data set [4] is ~3 fold decrease in affinity vs WT. Also, the binding result in [5] is on record as “binds”; in data set [6], “binds”; in data set [7] it was “binds”; in data set [8], “binds”; in data set [9] it was “no binding”; in [10] it was “no binding”. Further, the binding result in [12] and in data set [14] was “no binding” each time. The figures for the Kd in [11] and in data set [13] were about 1.16 µM and about 3.57 µM, respectively.

B4: downstream neighboring fragment (dsDNA)
DNA 1: TATTGCAAGGAGGATGCC
DNA 2: GGCATCCTCCTTGCAATA
For the molecule B4, in data set [3], the binding result is given as “no binding”.

B5: Saro_0803, MarR-like transcriptional regulator of Novosphingobium aromaticivorans DSM 12444 (natural protein, UniProt Q2GA75 1-157, looked up)
chain: T1 sequence (Q2GA75 1-157)
notes: Transcriptional regulator Saro_0803 (MarR family), encoded by gene saro_0803 of Novosphingobium aromaticivorans DSM 12444; theoretical MW of the tagged protein around 18.75 kDa; called full-length in contrast to the truncation 21-157; Cloned into pET-30a(+) by Nde I/Xho I; No removal of the tag is described; also called polyhistidine-tagged Saro_0803; His-tagged Saro_0803; source: E. coli …
By stoichiometry N is commonly meant a count of units in the complex or per binding partner. On to B5, for which the “stoichiometry N” value in data set [15] stood at 2.
